Consider one substance from patent US20090137003A1.

One may read the Kd as the equilibrium constant for the complex coming apart. As a reminder, the koff is the rate constant with which the complex falls apart. Broadly, the kon is the rate constant with which the complex forms.

In the assay the target is RSV protein F (recombinant or purified F protein) (respiratory syncytial virus (RSV), strain not stated). Put plainly: SPR (Biacore), Fab on recombinant antigen. Background: Surface plasmon resonance follows binding to a sensor surface in real time, without labels.

For the substance “Fab fragments derived from commercially available Palivizumab (Synagis)”, the Kd is 3.78 nM, the koff was found to be 0.000757 s⁻¹, the kon is 200000 M⁻¹ s⁻¹ and the t1/2 is 15 min.
